Results reported in the domain aggregation screens of Martell et al. (2025).

Test: soluble fraction after stress (log2 fold change); higher = more stays soluble; pooled small domains, quantitative proteomics
Settings: stress: pH 4
Summary of the method: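 Values are log2 fold changes, and higher ones mean more of the domain stayed soluble. Each fold change reflects the soluble amount of a domain after acid stress and is taken as a measure of aggregation propensity. The stress was pH 4, applied to pooled custom libraries of small protein domains analysed by high-throughput quantitative proteomics.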

Sequence | soluble fraction (log2)
HMAAADLNMRAKLADLGGMSYGELSIWEKTHGMEFAAWEHEWEKLNSGTQADGLKFPKHLPEGFPT | 0.116
HMAAAKDVMDWQNAIRGLTDAKGKPYSPTYLKTVHNQLSALFNHAVRYYGLQVNPAAKAGNMGVEE | 0.00664
HMAADDGSARAEQLREMYSLISGLDKLDKAIILMWLDERSYDEIAEVTGFTRNNVATRLHRIKSRLARQSN | -1.19
HMAAEIGSGVVDAYDLRLRSQPSTDAETIIYLDNGAKLSVQEDLGDWYKVVSGTYTGYVSAEYVAYTPSPE | -1.7
HMAAELHPYGADSYRGDNPPAGYEIKAKEESKKFHTPSSPWYGRTIAEIWFRTEEAAEAAGFINAVK | -0.272
HMAAELQALSVRELEVLDQLAGGASNREIAQRLYISENTVRNHVHSILTKLKLQNRTQLVGMT | -0.705
HMAAESWTEKSRALAAAGLVVMGRDAQTKIEELTNLAPLIEAANASNTRLLTSQSIDELLSIVPTEENL | -0.0379
HMAAGKGVTTGSVRLRKGSNTDSAIIATLKKDTELILYGKKDGWYSVKTSDGTEGFVSSKYVKVTEAY | -0.297
HMAAGLTPKQKAFADNYIKNGGNAAEAARAAGYSLKNVGANAGKLLKNPKIAAYIAEKQAELDRRNGT | -0.13
HMAAINPSALREPATPPEQLSAGDSVLHPRFGRGEILELQQQGGDPRAIVQFINEPKPRTLVLRYAQLRK | 0.0977
HMAAKADAVKKAIAAIGKVDASEDSKAKVEAARKAYAALTEDQKKLVEASQLKLLTEAEAAYQQAVEESKK | -0.0736
HMAAMSLGERIGAHRKRMGISQEELGHRMGVSRQAVSKWETGRAVPDMENLLALARLFGVPVSELAD | -0.0628
HMAAPVGLTQRQMEVAALVADGLTNAEIGRRLHITERSAESHLERVRIRLGFRSRAQVAAWFVTQE | -0.493
HMAATHYEGIKQDGETDDAVIERVLTGLSVTANKDDIFIVKTLIAGTKYSYTAYVYNGNAWAAM | -0.255
HMAATSTGFPGVEVRGNSIRVFFMYKRDRHAHTLPLEPTRNNIKHADQLRSAALFALRNGTYNEADFFPHS | -0.509
HMAATVKVPDLTKMTPDEAQRALGQVGLKGKQGDDVDDDSVPVGYIAKQDEAPNSDAKAGDTITYHL | 0.171
HMAAVSSHAVKQRIRSLIQAEDPASPLSDEALRLALSALGVEVSRRAVAKYRTSMDIPASSQRKK | 0.238

Sequence | soluble fraction (log2)
HMADEDTILALAKEILASWPDKVEAYKNGNKGMLGLFMGELMKKSGGKANPKSASALIQKLLE | -0.231
HMADEIQLVVQVNGKLRGRIMVAPDASREEIEKTALADADVSRFLGDTPVKKVIIVPKRLVNIVAPAPK | 0.0692
HMADENIELRKAGLKVTLPRVKILQILEAAKEPHMSAEDVYKALMEANEEVGLATVYRVLTQFESAGL | -0.232
HMADGKWTLTDAGYTFTYSDGRKARGTWEDIDGEWYHFDRNGIMETGWKTVGNIRYHFNQDGSL | -0.363
HMADIGRMKELIDILNRASAVYYQGKDEIMSNFEYDKLYDELVSLEKESGLVLAGSPTQKVGY | -0.0716
HMADKHVAAALLKLMDHLVGGRQYAFMKGRLTINKKVVLEATEVSAYRRGTGLSDADWQQRYE | -0.978
HMADLKRLNEQIHYLGQYLSTKATYKEFLQANNKKIYRSEHQDEIAKYEEAAQFLKRSSPDGTIPTMKDLR | 0.0861
HMADLSAYAGKEGMTDSVLRPSGKVDIEGHILDAVSRGDFIEKGKRVIVIKAEGSYLVVKKRMP | 0.166
HMADLTEEQKTLFRLIRDLQPVSSKTLLENSGFTRSTQTRLLNGLIEKQIVIRTGNGPATRYSLR | -0.307
HMADLTIDGVEYTKVSPTGTLTLEKVYTKNVTPADGQYYIQTGTKTVRVATDAEVAVIKAGGF | 0.247
HMADNKDMQAAFMEALNGLKEYAKVNGNIVTKEDVNSYFKDMHLDDNKYSMITGYLMANGITIKG | -0.432
HMADPRFHSEIMLSKIESLLSGKADSDVSNYSIQGRSLTKMSLQELMDARESYDGLVKSEKAKLDAKY | -0.218
HMADPVTPQDLIRWSEALAGIARTGLGFTQSLYEQERFEEVLAVAADMRVAAGSSYNPDDLVHEWMKSVG | -0.34
HMADQVVGQLGMVTQRIDNLQQTGRVSANGLDWAARSENGQPIPQGMPVEVLRIEGVKLIVRPVN | -0.00119
HMADTIEVVVQVNGKVRAKISTSPEVFADSTKLQELALADANVQKFIAGQTIRKVIIPKGTKLLNIV | -0.55
HMADTSPEGVQKLIKAFEQFGVSKDDIEGFIQRRVDAITPANVVSLRKIFTSLRDGMSSAKDWFKGA | -0.325
HMADVIKLVNTSVLNVRSGAGINYSKIGSLTQGTKVNIISESNGWSKINYNGKIGYISSQYVSEVS | 0.324
